Measured values as given in patent US20240067748A1 (NONA BIOSCIENCES SUZHOU, published 2024).

T1: human Trop2 on cells (human, UniProt P09758 27-323)
T1 sequence (looked up): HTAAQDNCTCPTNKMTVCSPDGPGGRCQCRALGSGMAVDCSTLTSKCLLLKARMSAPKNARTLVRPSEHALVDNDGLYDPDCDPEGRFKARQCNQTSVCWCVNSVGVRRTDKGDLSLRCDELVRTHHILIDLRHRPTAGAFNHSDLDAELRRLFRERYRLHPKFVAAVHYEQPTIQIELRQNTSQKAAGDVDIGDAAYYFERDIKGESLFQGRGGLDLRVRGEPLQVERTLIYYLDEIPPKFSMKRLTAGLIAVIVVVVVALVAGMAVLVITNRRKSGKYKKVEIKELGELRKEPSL

T2: human TROP2 protein (Sino Biological, #10428-H08H) (human, UniProt P09758 27-274)
T2 construct: bought protein; also called human Trop2 protein antigen (His tag); not shown: His tag
T2 sequence (looked up): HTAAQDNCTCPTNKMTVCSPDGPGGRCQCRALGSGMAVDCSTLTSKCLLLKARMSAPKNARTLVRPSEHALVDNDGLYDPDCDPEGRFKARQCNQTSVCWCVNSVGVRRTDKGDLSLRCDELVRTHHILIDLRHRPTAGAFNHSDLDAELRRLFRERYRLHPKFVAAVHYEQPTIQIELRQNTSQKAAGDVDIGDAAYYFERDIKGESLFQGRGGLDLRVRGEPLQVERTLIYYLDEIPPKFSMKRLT

T3: monkey Trop2 protein (Sino Biological, #90893-C08H) (monkey, UniProt A0A2K5UE71 27-274)
T3 construct: bought protein; also called monkey Trop2 protein antigen (His tag)
T3 sequence: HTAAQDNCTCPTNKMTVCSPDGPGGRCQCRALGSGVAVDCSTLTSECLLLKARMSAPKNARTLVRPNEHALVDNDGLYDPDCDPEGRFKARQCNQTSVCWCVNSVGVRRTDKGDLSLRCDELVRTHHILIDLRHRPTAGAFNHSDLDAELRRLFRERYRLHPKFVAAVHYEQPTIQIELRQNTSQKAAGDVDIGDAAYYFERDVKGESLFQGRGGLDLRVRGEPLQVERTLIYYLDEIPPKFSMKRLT


Columns and labels:
[1] = molecular target: T1, human Trop2 on cells; experiment: cell-based or functional assay
[2] = molecular target: T2, human TROP2 protein (Sino Biological, …); experiment: BLI epitope binning (Octet), biotinylated human Trop2 on SA sensor; row = primary antibody; competitor (secondary antibody, column): PR001142
Method: (§1) The biotinylated mixture after the incubation was washed three times with PBS and a Zeba centrifugal desalting column (Thermo Fisher, #89882) to remove excess biotin. The biotinylated Trop2 protein was captured by an SA sensor (Pall ForteBio, #18-5019) with the loading baseline set at 0.3 nm. The sensor was immersed in a well of assay buffer containing 50 nM primary antibody for 300 s. […] The binding assay was performed by comparing the binding of the secondary antibody to Trop2 in the presence of the primary antibody to the blocking of the primary antibody itself.

[3] = molecular target: T2, human TROP2 protein (Sino Biological, …); experiment: BLI epitope binning (Octet), biotinylated human Trop2 on SA sensor; row = primary antibody; competitor (secondary antibody, column): hRS7
Method: as §1

[4] = molecular target: T1, human Trop2 on cells; experiment: flow cytometry on 293T-human Trop2 cells
Method: The cell density was determined, and the cells were resuspended to 1×10⁶ cells/mL in PBS. 100 μL of cell suspension was taken from each well and added to a 96 well V-bottom plate. The 96-well V-bottom plate was centrifuged at 1000 rpm for 5 min and washed once with PBS+0.5% BSA (VWR, #0332-100G). […] After 1 h, the cells were washed twice with PBS+0.5% BSA. The cells were incubated with 100 μL of Alexa Fluor 488 goat anti-human IgG (Life technologies, 1:1000, #A-11013) at 4° C. for 1 h in the dark, and washed twice with PBS+0.5% BSA. The cells were resuspended in 200 μL of PBS+0.5% BSA. The fluorescence intensity of the cells was analyzed using a FACS verse flow cytometer. All procedures were performed on ice.

[5] = molecular target: T2, human TROP2 protein (Sino Biological, …); experiment: BLI epitope binning (Octet), biotinylated human Trop2 on SA sensor; row = primary antibody; competitor (secondary antibody, column): PR001165
Method: as §1

[6] = molecular target: T1, human Trop2 on cells; experiment: flow cytometry on BxPC-3 tumor cells
Method: BxPC-3 tumor cells (the Cell Bank of the Chinese Academy of Sciences, #TCHu 12) were digested with 3 mL of TrypLE, and the digestion was stopped with 7 mL of the corresponding medium. […] The cell solution was centrifuged, and the cells were washed once with PBS+[…] buffer. […] The cells were washed once with PBS+0.50% BSA. The cells were incubated at 4° C. for 1 h in the dark with 100 μL of Alexa Fluor 488 goat anti-human IgG (Life technologies, #A-11013) diluted at 1:1000, and washed twice with PBS+0.50% BSA. The cells were resuspended in 200 μL of PBS+0.50% BSA. The suspension was centrifuged at 4° C. for 5 min at 2000 rpm and tested using a FACS verse flow cytometer or NovoCyte flow cytometer (ACEA Biosciences). All procedures were performed on ice.

[7] = molecular target: T3, monkey Trop2 protein (Sino Biological, …); experiment: BLI, Octet RED96; ratio against KD for human Trop2 protein
Method: Specifically, a human TROP2 protein (Sino Biological, #10428-H08H) or a monkey Trop2 protein (Sino Biological, #90893-C08H) was diluted to 200 nM with a PBS buffer (pH 7.4) containing 0.1% (w/w) BSA and 0.02% (v/v) tween 20, and incubated with the AHC sensor respectively. 40 nM Trop2 antibody was incubated at 30° C. for 3 min with the AHC sensor loaded with the human Trop2 protein or monkey Trop2 protein respectively. The reaction mixture was incubated at 30° C. for another 5 min in a PBS buffer (pH 7.4) containing 0.1% (v/w) BSA and 0.02% (v/v) Tween 20. The association and dissociation signals between the Trop2 antibody and the human Trop2 protein or monkey Trop2 protein were recorded by Octet Red 96 in real time. The affinity and the association and dissociation constants were determined by Octet using software.

ADCP (Donor A1925144#) EC50(nM), BxPC-3 + macrophages [1] | ADCP (Donor A1925144#) Maximum phagocytosis % [1] | ADCP (Donor A1925144#) Minimum phagocytosis % [1] | ADCP (Donor A19143143#) EC50(nM), BxPC-3 + macrophages [1] | ADCP (Donor A19143143#) Maximum phagocytosis % [1] | ADCP (Donor A19143143#) Minimum phagocytosis % [1] | Inhibition rate (%) [2] | Inhibition rate (%) [3] | EC50 [4] | Maximum (MFI) [4] | Top % [4] | Inhibition rate (%) [5] | EC50 [6] | Maximum MFI value [6] | KD (monkey)/KD (human) [7] | fold lower EC50 than the reference antibody hRS7 [6] | fold lower EC50 than the reference antibody hRS7 [4] | Binder
0.0683 nM | 12.5% | 2.25% | 0.178 nM | 42.7% | 1.37% | 98.1% | 96.4% | 414 pM | 6460 MFI | 99.7% | 97.7% |  |  |  |  |  | PR001165 (antibody, human IgG1, kappa, V domains shown, fully human IgG1/kappa; also called antibody No. (26)) VH: QVQLVESGGGVVQPGRSLRLSCEASGFTFSHYGMHWVRQAPGKGLEWVAVIWYDGIKTYYVESVKGRFTISRDNSKNTLNLQMNRLRAEDTAVYYCARDGGFGESNYYGLDVWGQGTTVTVSS VL: DIQLTQSPSFLSASVGDRVTITCRASQGISSYLGWYQQKPGKAPKLLIYIASTLQSGVPSRFSGSGSGTEFTLTISSLQPEDFATYYCQQLNSYPYTFGQGTKLEIKR
 |  |  |  |  |  |  |  | 995 pM | 7200 MFI | 111% |  | 2070 pM | 8950 MFI | 2.27 |  |  | PR001133 (antibody, human IgG1, kappa, V domains shown, fully human IgG1/kappa; also called antibody No. (5)) VH: QVNLVESGGGVVQPGRSLKLSCAASGFTFSSYGMHWVRQAPGKGLEWVALIWSDGTNRYYTESVKGRFTISRDNSKNTLSLQMKSLRAEDTAVYYCAKDGWGTYGEYFQHWGQGTLVTVSS VL: DIQMTQSPSSLSASVGDRVTITCRASQNINSYLHWYQQKPGKAPKLLIYAASSLQSGVPSRFSGSGSGTDFTLTISSLQPEDFAIYYCQQSYSIPPITFGQGTRLEIKR
0.125 nM | 14.8% | 1.72% | 0.208 nM | 44.8% | 1.04% | 93.3% | 96.5% | 753 pM | 6480 MFI |  | 92% | 2080 pM | 8730 MFI |  |  |  | comparative example 2 antibody Tab (hRS7) (antibody, human IgG1, kappa, V domains shown, prepared on the basis of sacituzumab govitecan (ChemPartner, #T07-001); naked antibody) VH: QVQLQQSGSELKKPGASVKVSCKASGYTFTNYGMNWVKQAPGQGLKWMGWINTYTGEPTYTDDFKGRFAFSLDTSVSTAYLQISSLKADDTAVYFCARGGFGSSYWYFDVWGQGSLVTVSS VL: DIQLTQSPSSLSASVGDRVSITCKASQDVSIAVAWYQQKPGKAPKLLIYSASYRYTGVPDRFSGSGSGTDFTLTISSLQPEDFAVYYCQQHYITPLTFGAGTKVEIKR
 |  |  |  |  |  |  |  | 325 pM | 6850 MFI | 106% |  | 3140 pM | 9360 MFI | 1.62 |  |  | PR001139 (antibody, human IgG1, kappa, V domains shown, fully human IgG1/kappa; also called antibody No. (8)) VH: QVQLVESGGGVVQPGRSLRLSCAASGFTFSSFGMQWVRQGPGKGLEWVAVMWFDGSNKYYVDSVKGRFTISRDNSKNTLYLQMNSLRAEDTAVYYCARLDFSGWPLIDYWGQGTLVTVSS VL: not shown
 |  |  |  |  |  |  |  | 2060 pM | 6820 MFI | 105% |  | 3850 pM | 9960 MFI |  |  |  | PR001130 (antibody, human IgG1, kappa, V domains shown, fully human IgG1/kappa; also called antibody No. (2)) VH: QVQLQESGPGLVKPSGTLSLTCAVSGDSISSHNWWSWVRQPPGKGLEWIGEIYHSGITSYNPSLKSRVTISVDKSKNQFSLKLNSVTAADTAMYYCARGSGVISYFDYWGQGTLVTVSS VL: DIQMTQSPSTLSASVGDRVTITCRASQSIGNWLAWYQQKPGKAPKLLIYKASSLESGVPSRFSGSGSGTEFTLTISSLQPDDFATYYCQQYDSYSPITFGQGTRLEIKR
0.0311 nM | 9.33% | 2.05% | 0.161 nM | 40.2% | 2.04% | 85.4% | 21.8% | 204 pM | 7050 MFI | 109% | 18.5% | 716 pM | 8390 MFI |  | ~2 fold | ~3 fold | PR001166 (antibody, human IgG1, kappa, V domains shown, fully human IgG1/kappa; also called antibody No. (27)) VH: QVQLQESGPGLVKPSETLSLTCAVSGYSISSGYFWAWIRQPPGKGLEWIGSIYHSGRTHYNPSLKSRVIISLDTSKNQFSLKLRSVTAADSAVYYCAREGYASGSYYWGQGTLVTVSS VL: EIVMTQSPATLSVSPGERATLSCRSSQSVNNYLAWFQQKPGQAPRLLIYDSSTRATGIPARFSGSGSGTEFTLTISSLQSEDFAFYFCQQYENWPLTFGGGTKVEIKR
 |  |  |  |  |  |  |  | 158 pM | 5850 MFI | 90.2% |  | 1120 pM | 9110 MFI | 2.16 | ~2 fold | ~3 fold | PR001162 (antibody, human IgG1, kappa, V domains shown, fully human IgG1/kappa; also called antibody No. (23)) VH: QVQLVESGGGVVQPGTSLRLSCVASGFTFSNDGMHWVRQAPGMGLEWVAIMWFDGGSKYYADSVKGRFTISRDNSKNTLYLQMNNLRAEDTAVYYCARDHPHYLGSGSFDYWGQGTLVTVSS VL: EIVLTQSPATLSLSPGERATLSCRASQSVSSYLAWYQQKPGQAPRLLIYDASNRATGIPARFSGSGSGTDFTLTISSLQAEDVAVYYCQQYYSTPYTFGQGTKLEIKR
 |  |  |  |  |  |  |  | 466 pM | 6850 MFI | 106% |  | 1700 pM | 8410 MFI |  |  |  | PR001128 (antibody, human IgG1, kappa, V domains shown, fully human IgG1/kappa; also called antibody No. (1)) VH: QVQLQESGPGLVKPSGTLSLTCAVSGGSISSSNWWSWVRQPPGKGLEWIGEIFHSGTTYYNPSLKSRVTILVDKSKNQFSLKLSSVTAADTAVYYCARDNTKSWDHFDHWGQGTLVTVSS VL: EIVLTQSPATLSLSPGERATLSCRASQSVGSYLAWYQQKPGQAPSLLIYDASNRATGIPARFSGSGSGTDFTLTISSLEPEDFAVYYCQQRTNWYTFGQGTKLEIKR
